Reference: PMC6730887, “FKBP51 and FKBP12.6—Novel and tight interactors of Glomulin” (PLoS ONE, 2019)
Substitutions are numbered along the chain they refer to. In names and notes the source's numbering stands. Read-outs that look alike come from different tables or passages of the source.

B1: His-FKBP51FK1 (aa16-140) (domain or fragment)
chain: ATVAEQGEDITSKKDRGVLKIVKRVGNGEETPMIGDKVYVHYKGKLSNGKKFDSSHDRNEPFVFSLGKGQVIKAWDIGVATMKKGEICHLLCKPEYAYGSAGSLPKIPSNATLFFEIELLDFKGE
B2: His-FKBP52FK1 (domain or fragment)
chain: GDRVFVHYTGWLLDGTKFDSSLDRKDKFSFDLGKGEVIKAWDIAIATMKVGEVCHITCKPEYAYGSAGSPPKIPPNATLVFEVELFEFK
B3: His-FKBP51FK1 (FD67/68DV) (domain or fragment)
chain: MTTDEGAKNNEESPTATVAEQGEDITSKKDRGVLKIVKRVGNGEETPMIGDKVYVHYKGKLSNGKKDVSSHDRNEPFVFSLGKGQVIKAWDIGVATMKKGEICHLLCKPEYAYGSAGSLPKIPSNATLFFEIELLDFKGE
B4: His-FKBP51FK1 (F67V) (domain or fragment)
chain: B3 chain with D67V, V68D
B5: His-FKBP51-Strep (full length) (natural protein, UniProt Q13451 1-457, looked up)
chain: MTTDEGAKNNEESPTATVAEQGEDITSKKDRGVLKIVKRVGNGEETPMIGDKVYVHYKGKLSNGKKFDSSHDRNEPFVFSLGKGQVIKAWDIGVATMKKGEICHLLCKPEYAYGSAGSLPKIPSNATLFFEIELLDFKGEDLFEDGGIIRRTKRKGEGYSNPNEGATVEIHLEGRCGGRMFDCRDVAFTVGEGEDHDIPIGIDKALEKMQREEQCILYLGPRYGFGEAGKPKFGIEPNAELIYEVTLKSFEKAKESWEMDTKEKLEQAAIVKEKGTVYFKGGKYMQAVIQYGKIVSWLEMEYGLSEKESKASESFLLAAFLNLAMCYLKLREYTKAVECCDKALGLDSANEKGLYRRGEAQLLMNEFESAKGDFEKVLEVNPQNKAARLQISMCQKKAKEHNERDRRIYANMFKKFAEQDAKEEANKAMGKKTSEGVTNEKGTDSQAMEEEKPEGHV
notes: FKBP51, full length; in pProEx-HTA, used as previously described; also called FKBP51FL; full-length FKBP51; source: E. coli BL21(DE3), purified (Ni-NTA, SEC)
B6: His-FKBP51FK1 (1-140) (domain or fragment)
chain: B3 chain with D67F, V68D
B7: His-FKBP52-Strep (full length) (natural protein, UniProt Q02790 1-459, looked up)
chain: MTAEEMKATESGAQSAPLPMEGVDISPKQDEGVLKVIKREGTGTEMPMIGDRVFVHYTGWLLDGTKFDSSLDRKDKFSFDLGKGEVIKAWDIAIATMKVGEVCHITCKPEYAYGSAGSPPKIPPNATLVFEVELFEFKGEDLTEEEDGGIIRRIQTRGEGYAKPNEGAIVEVALEGYYKDKLFDQRELRFEIGEGENLDLPYGLERAIQRMEKGEHSIVYLKPSYAFGSVGKEKFQIPPNAELKYELHLKSFEKAKESWEMNSEEKLEQSTIVKERGTVYFKEGKYKQALLQYKKIVSWLEYESSFSNEEAQKAQALRLASHLNLAMCHLKLQAFSAAIESCNKALELDSNNEKGLFRRGEAHLAVNDFELARADFQKVLQLYPNNKAAKTQLAVCQQRIRRQLAREKKLYANMFERLAEEENKAKAEASSGDHPTDTEMKEEQKSNTAGSQSQVETEA
notes: FKBP52, full length; in pProEx-HTA, used as previously described; also called FKBP52FL; full-length FKBP52; source: E. coli BL21(DE3), purified (Ni-NTA, SEC)

Experiments:
GST-Glmn (Glomulin) [1] = target: T1, GST-Glmn (Glomulin) (UniProt Q92990 1-594); assay: FRET
T1 chain: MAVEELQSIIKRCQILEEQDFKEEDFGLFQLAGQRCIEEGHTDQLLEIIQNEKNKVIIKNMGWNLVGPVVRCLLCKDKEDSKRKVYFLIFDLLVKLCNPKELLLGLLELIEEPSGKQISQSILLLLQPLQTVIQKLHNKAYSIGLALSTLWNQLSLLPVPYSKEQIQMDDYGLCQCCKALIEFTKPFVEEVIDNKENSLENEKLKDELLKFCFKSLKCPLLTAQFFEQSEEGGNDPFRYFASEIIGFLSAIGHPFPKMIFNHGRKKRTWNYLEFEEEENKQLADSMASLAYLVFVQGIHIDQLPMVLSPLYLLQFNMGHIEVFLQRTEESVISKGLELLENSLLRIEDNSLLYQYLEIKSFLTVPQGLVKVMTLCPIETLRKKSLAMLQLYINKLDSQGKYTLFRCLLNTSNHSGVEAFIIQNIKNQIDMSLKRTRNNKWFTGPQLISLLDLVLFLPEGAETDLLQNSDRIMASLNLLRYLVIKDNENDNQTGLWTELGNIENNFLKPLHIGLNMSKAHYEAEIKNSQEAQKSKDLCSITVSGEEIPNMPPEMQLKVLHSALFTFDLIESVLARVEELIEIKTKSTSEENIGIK

GST-Glmn (Glomulin) [2] = target: T1, GST-Glmn (Glomulin); assay: FRET
GST-Glmn (Glomulin) [3] = target: T1, GST-Glmn (Glomulin); assay: FRET
GST-Glmn (Glomulin) [4] = target: T2, GST-Glmn (Glomulin) (UniProt Q92990 1-594); assay: AlphaScreen or HTRF; competitive HTRF: unlabelled FKBP titrated against 30 nM FKBP51FK1-5-MF and 30 nM GST-Glmn with Anti GST-Tb cryptate; 20 mM HEPES, 5% glycerol, 20 mM NaCl, 10 mM DTT, pH 8.0; room temperature, 1 h; details: both partners purified
T2 construct: Glomulin (Glmn); GST is detected by the anti-GST-Tb cryptate antibody in the HTRF assays; also called GST-tagged Glmn; FAP48; source: E. coli BL21(DE3), purified (glutathione beads, SEC)
T2 sequence (looked up): T1 chain

Binder	IC50 (GST-Glmn (Glomulin) [1]) [nM]	IC50 (GST-Glmn (Glomulin) [2]) [nM]	also measured
B1	372	380	–
B2	362	–	–
B3	–	–	IC50 (GST-Glmn (Glomulin) [3]): 15600 nM
B4	–	880	–
B5	96	–	fold difference in competition between full-length protein and the isolated FK506-binding domain (GST-Glmn (Glomulin) [4]): 4 fold
B6	–	383	–
B7	–	–	fold better competition than its FK1 domain (GST-Glmn (Glomulin) [4]): ~19 fold
